Measured values as given in patent US20060115428A1 (MorphoSys, published 2006).
Positions count from the first letter of the chain named.

B1: MOR02622 (Fab, V domains shown)
VH: QVQLVESGGGLVQPGGSLRLSCAASGFTFSNYAMTWVRQAPGKGLEWVSGISYKSSSTYYADSVKGRFTISRDNSKNTLYLQMNSLRAEDTAVYYCARGLVTFDNWGQGTLVTVSS
VL: DIALTQPASVSGSPGQSITISCTGTSSDGGTYNFVSWYQQHPGKAPKLMIYRVSNRPSGVSNRFSGSKSGNTASLTISGLQAEDEADYYCSSWTHSFTDYVFGGGTKLTVLG
notes: HuCAL GOLD Fab, VH3/L2
B2: MOR02613 (Fab, V domains shown)
VH: QVQLVESGGGLVQPGGSLRLSCAASGFTFSNYTMTWVRQAPGKGLEWVSFIIGSGSNTSYADSVKGRFTISRDNSKNTLYLQMNSLRAEDTAVYYCARYVNGFDIWGQGTLVTVSS
VL: DIALTQPASVSGSPGQSITISCTGTSSDVGVYYYVSWYQQHPGKAPKLMIYYDSKRPSGVSNRFSGSKSGNTASLTISGLQAEDEADYYCQTYAKKDYSLVFGGGTKLTVLG
notes: HuCAL GOLD Fab, VH3/L2
B3: MOR02611 (Fab, V domains shown)
VH: QVQLVQSGAEVKKPGASVKVSCKASGYTFSGSYMHWVRQAPGQGLEWMGIINPASGKTLYAQKFQGRVTMTRDTSISTAYMELSSLRSEDTAVYYCARGLYYRFASWGQGTLVTVSS
VL: DIALTQPASVSGSPGQSITISCTGTSSDIGGYHSVSWYQQHPGKAPKLMIYRSNRPSGVSNRFSGSKSGNTASLTISGLQAEDEADYYCAAATGGWVFGGGTNLTVLG
notes: HuCAL GOLD Fab, VH1B/L2
B4: MOR02722 (Fab, V domains shown)
VH: QVQLVESGGGLVQPGGSLRLSCAASGFTFSSNAIHWVRQAPGKGLEWVSSISGSGSNTYYADSVKGRFTISRDNSKNTLYLQMNSLRAEDTAVYYCARFIASWGQGTLVTVSS
VL: DIVMTQSPLSLPVTPGEPASISCRSSQSLVHSNGYTDLNWYLQKPGQSPQLLIYLGSYRASGVPDRFSGSGSGTDFTLKISRVEAEDVGVYYCQQYSNFPFTFGQGTKVEIKR
notes: HuCAL GOLD Fab, VH3/K2
B5: MOR02614 (Fab, V domains shown)
VH: B4 VH with S30N, S31N, A33W, I34M, S50F, N57H, F99A, I100Y, A101D, S102V
VL: DIVLTQPPSVSGAPGQRVTISCSGSSSNIGFNYVNWYQQLPGTAPKLLIYGNSKRPSGVPDRFSGSKSGTSASLAITGLQSEDEADYYCAMFSPEGVFGGGTKLTVLG
notes: HuCAL GOLD Fab, VH3/L1
B6: MOR02610 (Fab, V domains shown)
VH: QVQLVQSGAEVKKPGASVKVSCKASGYTFTGFYINWVRQAPGQGLEWMGWINPYSGNTRYAQKFQGRVTMTRDTSISTAYMELSSLRSEDTAVYYCARSPVYYKYDYWGQGTLVTVSS
VL: DIVLTQPPSVSGAPGQRVTISCSGSSGNIGINFVNWYQQLPGTAPKLLIYKNNKRPSGVPDRFSGSKSGTSASLAITGLQSEDEADYYCQSYDKTSSTYVFGGGTKLTVLG
notes: HuCAL GOLD Fab, VH1B/L1
B7: MOR02618 (Fab, V domains shown)
VH: QVQLVESGGGLVQPGGSLRLSCAASGFTFNNYGMTWVRQAPGKGLEWVSSIYGYGSNTYYADSVKGRFTISRDNSKNTLYLQMNSLRAEDTAVYYCARNYWVFAYWGQGTLVTVSS
VL: DIELTQPPSVSVAPGQTARISCSGDNIPGKSVHWYQQKPGQAPVLVIYGKMNRPSGIPERFSGSNSGNTATLTISGTQAEDEADYYCQSYDNFNDSVVFGGGTKLTVLG
notes: HuCAL GOLD Fab, VH3/L3
B8: MOR02619 (Fab, V domains shown)
VH: QVQLQESGPGLVKPGETLSLTCTVSGGSISSYYWSWIRQAPGKGLEWIGIGHWGSTQYNPSLKGRVTISVDTSKNQFSLKLSSVTAEDTAVYYCARFFDVWGQGTLVTVSS
VL: DIVLTQPPSVSGAPGQRVTISCSGSSSNIGSNTVRWYQQLPGTAPKLLIYSNNKRPSGVPDRFSGSKSGTSASLAITGLQSEDEADYYCQSWDGASTGVFGGGTKLTVLG
notes: HuCAL GOLD Fab, VH4/L1
B9: MOR02616 (Fab, V domains shown)
VH: QVQLVESGGGLVQPGGSLRLSCAASGFTFRNNAMHWVRQAPGKGLEWVSAISSSGSGTYYADSVKGRFTISRDNSKNTLYLQMNSLRAEDTAVYYCARVIVLFDYWGQGTLVTVSS
VL: DIVLTQSPATLSLSPGERATLSCRASQNVRSNLAWYQQKPGQAPRLLIYGASNRATGVPARFSGSGSGTDFTLTISSLEPEDFAVYYCLQKYSIPFTFGQGTKVEIKR
notes: HuCAL GOLD Fab, VH3/K3
B10: MOR03069 (Fab, V domains shown)
VH: B8 VH
VL: DIVLTQPPSVSGAPGQRVTISCSGSSSNIGSNTVRWYQQLPGTAPKLLIYSNNKRPSGVPDRFSGSKSGTSASLAITGLQSEDEADYYCWTGMSYHFVFGGGTKLTVLG
notes: Fab, L-CDR3 derivative of MOR02619
B11: MOR03055 (Fab, V domains shown)
VH: B8 VH
VL: DIVLTQPPSVSGAPGQRVTISCSGSSSNIGSNTVRWYQQLPGTAPKLLIYSNNKRPSGVPDRFSGSKSGTSASLAITGLQSEDEADYYCQAWTRAHRYPVFGGGTKLTVLG
notes: as for B10
B12: MOR03071 (Fab, V domains shown)
VH: B8 VH
VL: B8 VL with Q90L, S91A, W92Y, D93I, G94Q, A95S, S96K, T97G, G98H
notes: as for B10
B13: MOR03066 (Fab, V domains shown)
VH: B8 VH
VL: B8 VL with Q90S, W92Y, G94T, A95Q, S96V, G98R
notes: as for B10
B14: MOR03075 (Fab, V domains shown)
VH: B8 VH
VL: B8 VL with G94P, A95R, T97F, G98T
notes: as for B10
B15: MOR03243 (Fab, V domains shown)
VH: QVQLQESGPGLVKPGETLSLTCTVSGGSISSYYWSWIRQAPGKGLEWIGEIHRGGYTQYNPSLKSRVTISVDTSKNQFSLKLSSVTAADTAVYYCARFFDVWGQGTLVTVSS
VL: B11 VL
notes: Fab, H-CDR2 derivative of MOR03055

target: T1, recombinant fibronectin domain ED-B (His)6 (human, UniProt P02751 1266-1356); test: SPR (BIAcore), ED-B immobilised on chip, Fab in flow
T1 construct: domain: ED-B; Produced by standard procedures; immobilised on ELISA plates or on the BIAcore chip; also called recombinant ED-B; human ED-B
Protocol: (§1) F1-Chips (Biacore, Sweden) were coated with about 200 RU of ED-B (30 μg/ml, 10 mmol of acetate buffer, pH 4.0) and reference flow cells with a corresponding amount of human serum albumin (20 μg/ml, 10 mmol of acetate buffer, pH 4.5) with use of standard EDC-NHS-amine-coupling chemistry. The antigen density was reduced to about 100 RU for the Fab characterization of the second maturation. The regeneration was carried out with 10 mmol of HCl. All kinetic measurements were carried out in PBS buffer (136 mmol of NaCl, 2.7 mmol of KCl, 10 mmol of Na₂HPO₄, 1.76 mmol of KH₂PO₄, pH 7.4) with a flow rate of 20 μl/minute with use of a Fab concentration range of 1.5-500 nmol. The injection period was 1 minute in each case. All sensograms were evaluated with use of BIA evaluation software 3.1.
The properties of twelve selected binding molecules was determined by BIAcore analysis (see Table 1). […] At least two independent measurements with Fab molecules from different batches were performed for protein expression and protein purification. The binding rate (Kₒₙ) and the dissociating-off rate (Koff) of the Fab molecule are indicated in separate columns.

Binder | Kd [nM] | koff [s⁻¹] | kon [M⁻¹ s⁻¹]
B1 | 21.3 | 0.0051 | 240000
B2 | 164 | 0.13 | 780000
B3 | 332 | 0.051 | 150000
B4 | 94 | 0.014 | 150000
B5 | 160 | 0.042 | 280000
B6 | 75 | 0.091 | 1.3e+06
B7 | 477 | 0.2 | 430000
B8 | 15.4 | 0.012 | 780000
B9 | 59 | 0.028 | 540000

target: T2, recombinant fibronectin domain 6 (UniProt P02751 1086-1172, limits assumed); test: specificity ELISA on immobilised recombinant fibronectin domain 6
T2 construct: domain: fibronectin domain 6; also called 6FN; 6-FN

Binder | binding result
B1 | no binding
B4 | no binding
B5 | no binding
B6 | no binding
B7 | no binding
B8 | no binding

target: T3, recombinant fibronectin domain 7-8-9 (without ED-B) (UniProt P02751-1 1173-1446, limits assumed); test: specificity ELISA on immobilised recombinant domain 7-8-9
T3 construct: domain: fibronectin domains 7-8-9 (without ED-B)

Binder | binding result
B1 | no binding
B4 | no binding
B5 | no binding
B6 | no binding
B7 | no binding
B8 | no binding

target: T1, recombinant fibronectin domain ED-B …; test: SPR (BIAcore), ED-B immobilised on chip, Fab in flow; remark: another data set of the same source
Protocol: as §1

Binder | Kd [nM] | koff [s⁻¹] | kon [M⁻¹ s⁻¹]
B8 | 15.4 | 0.012 | 780000
B10 | 3.3 | 0.0041 | 1.2e+06
B11 | 3 | 0.0051 | 1.8e+06
B12 | 3.1 | 0.0057 | 1.9e+06
B13 | 4.2 | 0.0047 | 1.1e+06
B14 | 2.4 | 0.0026 | 1.1e+06

target: T1, recombinant fibronectin domain ED-B …; test: SPR (BIAcore), ED-B immobilised on chip (about 100 RU), Fab in flow
Protocol: as §1

Binder | Kd [nM] | koff [s⁻¹] | kon [M⁻¹ s⁻¹]
B15 | 0.7 | 0.0018 | 2.9e+06

target: T1, recombinant fibronectin domain ED-B …; test: SPR (BIAcore); ratio to parent clone MOR02619
Protocol: as §1

Binder | x-Fold Improvement Relative to the Parent Clone, KD [fold] | x-Fold Improvement Relative to the Parent Clone, Koff [fold] | x-Fold Improvement Relative to the Parent Clone, Kon [fold]
B10 | 4.8 | 3.2 | 1.5
B11 | 5.4 | 2.6 | 2.2
B12 | 5.1 | 2.3 | 2.3
B13 | 3.8 | 2.8 | 1.4
B14 | 6.8 | 5 | 1.4
